Laboratory results: doi:10.1101/2021.05.09.442808 (bioRxiv, 2021)

Biological target: SARS-CoV-2 S 2P prefusion-stabilized ectodomain trimer (SARS-CoV-2 (Wuhan-Hu-1), stabilised)
Assay: SPR

B1: S2P6 Fab fragment (Fab, V domains shown)
VH: EVQLVQSGAEVKKPGASVKVSCKASGYTFTSQYMHWVRQAPGQGLEWIGIINPSGVHTSYAQKFQGRVTLTRDTSTSTLYMELSSLRSEDTAVYYCARGSPKGAFDYWGQGTLVTVSS
VL: not shown
B1 was tested, and the Kd was 7 nM.
